We go through ten molecules from patent US7053177B1, “Random peptides that bind to gastro-intestinal tract (GIT) transport receptors and related methods” (Cytogen Corporation, priority 1997, dated 2006).

Ends that are not written are not given here. * marks the point of attachment. Dansyl = CN(C)c1cccc2c(S(=O)(=O)*)cccc12

Data set [1] addresses BSA (Bos taurus, UniProt P02769). Put plainly: Receptor ELISA of phage on BSA (background control protein). The class given is binding. The protocol: 96 well plates were coated overnight with GIT receptor, BSA and, optionally, IDE (insulin degrading enzyme, an irrelevant His-fusion protein)or hTF. The plates were blocked for one hour with 0.5% BSA-PBS. After clarification, the amplified phage were diluted 1:100 in 1% BSA plus 0.05% Tween 20 in PBS and added to the plates. Following incubation of the plates on a rotator for 1 to 2 hours, the plates were washed 5 times with 1% BSA plus 0.05% Tween 20 in PBS. Dilute anti-M13-HRP conjugate (anti-M13 antibody linked to horse radish peroxidase (HRP)) was added to all the wells and the plate was incubated for one hour on a rotator. After the plates were washed 5 times, as described above, TMB substrate was added to the wells. The plates were read at 650 nm absorbance.
(ELISA stands for enzyme-linked immunosorbent assay.)

In data set [2] the test system is rat gastro-intestinal tract (closed loop). The data set can be described thus: Transport of preselected phage libraries in rat closed loop, detected by oligonucleotide hybridization/autoradiography. The following applies: in words; for Presence in the intestinal samples fractions / Transport from the GIT closed loop model into the portal circulation: D2H pool. The protocol: Four preselected phage libraries, GI-D2H, GI-hSI, GI-HPT1 and GI-hPEPT1, were constructed by pooling phage previously selected by screening random phage display libraries D38 and DC43 using the HPT1, HPEPT1, D2H and hSI receptor or binding sites located in the GIT.
In particular, phages selected in vitro to each receptor or binding site located in the GIT were amplified in E. coli, PEG-precipitated, resuspended in TBS and the titer of each phage sample was determined by plaquing in E. coli as described above. […] Using the in situ loop model described above, 0.5 ml of preselected phage library solution was injected into the tied-off portion of the duodenum/jejunum. Blood was collected into heparinized tubes from the portal vein at 0, 15, 30, 45 and 60 minutes. A blood sample was taken from the systemic circulation at the end of the experiment. Similarly, the portion of the duodenum/jejunum used for phage injection was taken at the end of the experiment.
Thirty microliters of the collected portal blood (neat and 10^−2, 10^−1, 10^−6 dilutions) was added to 30 μl E. coli K91Kan cells (overnight culture) and incubated at 37° C. for 10 min. Subsequently, 3 ml of top agarose was added and the samples were plated for plaques. One hundred microliters of the collected portal blood was added to 100 μl of E. coli K91Kan. Five milliliters of LB medium was then added and the samples were incubated at 37° C. overnight in a rotating microbial incubator. The E. coli was removed by centrifugation and the amplified phage supernatant samples were either titered directly or were PEG-precipitated, resuspended in TBS and titered. Following titration of the amplified phage, samples containing phage from each set of animals were combined, adjusting the titer of each sample to the same titer, and were plated for plaques on LB agar lates (22 cm^2 square plates). Either 12,000 or 24,000 phage were lated for plaques.
Thirty microliters of the collected systemic blood (neat and 10^−2, 10^−1, 10^−6 dilutions) was added to E. coli K91Kan cells, incubated at 37° C. for 10 min. Three ml of top agarose was then added and the samples were plated for plaques. One hundred microliters of the collected systemic blood was added to 100 μl of E. coli K91Kan, incubated at 37° C. for 10 min. Five milliliters of LB medium was then added and the samples were incubated at 37° C. overnight in a rotating microbial incubator. The E. coli was removed by centrifugation and the amplified phage supernatant samples were either titered directly or were PEG-precipitated, resuspended in TBS and titered. Following titration of the amplified phage, samples containing phage from each set of animals were combined, adjusting the titer of each sample to the same titer, and were plated for plaques on LB agar plates (22 cm^2 square plates). Either 12,000 or 24,000 phage were plated for plaques.
The intestinal tissue portion used in each closed loop was excised. […] Alternatively, the tissue (in PBS supplemented with protease inhibitors) was homogenized in an Ultra Thorex homogenizer, washed 3 times in PBS containing protease inhibitors and resuspended in PBS containing protease inhibitors (Int-G samples). In each case, serial dilutions (neat and 10^−2, 10^−4, 10^−6 dilutions) of the tissue homogenate was titered in E. coli.
The phage amplified from the portal blood, systemic blood and intestinal tissue was plated for plaques. […] The filters were air-dried, and the DNA was cross-linked to the filter (UV crosslinking: 2 min, high setting). The filters were incubated in pre-hybridization buffer (6×SSC, 5× Denhardt's solution, 0.1% SDS, […] yeast tRNA) at 40° C.–45° C. for at least 60 min.
Synthetic oligonucleotides, (22-mers), complimentary to regions coding for the receptor or binding sites used to create the preselected phage library, were synthesized (see Table 14 below).

In data set [3] the test system is P100 membrane fraction of Caco-2 cells. The data set can be described thus: Dansylated peptide ELISA: relative binding of PAX2 and HAX42 peptides to P100 fractions (ratio to ZElan021). As to conditions: PAX2 peptides, first column, ratio to ZElan021 = 1.00. In short, it runs like this:
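Plates coated overnight at 4 °C with Caco-2 P100 membrane fraction (normally 100 μg/ml, pH 9.6) and blocked with 2% Marvel/PBS were incubated with dansylated peptides. Binding was detected with anti-mouse λ-HRP and TMB, read at 650 nm, and expressed relative to ZElan021.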

For data set [4] the test system is unchanged. Put plainly: Binding of dansylated peptides to P100 fractions (peptide/particle correlation). The protocol: Caco-2 cell membrane (P100) and cytosolic (S100) fractions were prepared using a modification of the method described in Kinsella, B. T., O'Mahony, D. J. and G. A. FitzGerald, 1994, J. Biol. Chem. 269(47): 29914–29919. Confluent Caco-2 cell monolayers (grown in 75 cm^2 flasks for up to 1 week at 37° C. and 5% CO2) were washed twice in Dulbecco's PBS (DPBS) and the cells were harvested by centrifugation at 1000 rpm after treatment with 10 mM EDTA-DPBS. The cells were washed 3 times in DPBS and the final cell pellet was resuspended in 3 volumes of ice cold HED buffer (20 mM HEPES (pH 7.67), 1 mM EGTA, 0.5 mM dithiothreitol, 1 mM phenylmethylsulphonyl fluoride (PMSF)). The cells were allowed to swell for 5 min on ice prior to homogenization for 30 sec. The homogenates were centrifuged at 40,000 rpm for 45 min at 4° C. The supernatant (S100) was removed and the pellet (P100) was resuspended in HEDG buffer (20 mM HEPES (pH 7.67), 1 mM EGTA, 0.5 mM dithiothreitol, 100 mM NaCl, 10% glycerol, 1 mM PMSF). Protein concentrations were determined using the Bradford assay (Bradford, M. M., 1976, Anal. Biochem. 72: 248–254).
Binding of peptide and/or peptide-coated PLGA particles to membrane (P100) and cytosolic (S100) fractions was assessed by detection of the dansyl moiety incorporated in the peptide. Costar ninety six well ELISA plates were coated with S100 and P100 fractions (100 μg/ml in 0.05 M NaHCO3) overnight at 4° C. The plates were blocked with 0.5% bovine serum albumin in DPBS for 1 h at room temperature and washed 3 times in 1% BSA-DPBS. Peptide-coated particles or peptides were dispersed in the same buffer and added to the plates at concentrations in the range 0.0325–0.5 mg/well. […] The plates were incubated for 1 h at room temperature. The wells were washed 3 times in 1% BSA-DPBS and 100 μl of goat anti-mouse IgGλ:HRP antibody (Southern Biotechnology 1060-05; 1:10,000) was added per well. The plates were incubated for 1 h at room temperature. After washing 3 times in 1% BSA-DPBS 100 μl of TMB substrate (3,3′,5′,5-tetramethylbenzidine; Microwell Peroxidase Substrate System (Kirkegaard and Perry Laboratories 50-76-00)) was added and the optical density was measured at 650 nm at various time intervals.
Binding of dansylated peptides to P100 fractions was assessed to determine if peptide binding was predictive of peptide-coated particle binding.

Data set [5] concerns the target T1, recombinant D2H receptor domain (human D2H transporter, amino acid residues 387-685), His-tag fusion protein (human) (UniProt Q07837).
T1 sequence: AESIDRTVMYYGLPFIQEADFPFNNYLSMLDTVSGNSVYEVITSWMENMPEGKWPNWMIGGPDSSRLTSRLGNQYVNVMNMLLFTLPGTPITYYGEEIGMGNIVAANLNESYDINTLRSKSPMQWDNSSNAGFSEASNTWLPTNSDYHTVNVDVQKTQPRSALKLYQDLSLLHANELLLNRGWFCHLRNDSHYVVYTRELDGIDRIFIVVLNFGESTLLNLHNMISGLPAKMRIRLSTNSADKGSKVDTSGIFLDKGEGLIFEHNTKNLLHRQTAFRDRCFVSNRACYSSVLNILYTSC
The data set can be described thus: phage ELISA, OD on D2H over OD on BSA.

For data set [6], the target named is bovine serum albumin (bovine) (UniProt P02769). Put plainly: phage ELISA on coated BSA.
Chain of bovine serum albumin (bovine) (P02769 25-607 limits assumed): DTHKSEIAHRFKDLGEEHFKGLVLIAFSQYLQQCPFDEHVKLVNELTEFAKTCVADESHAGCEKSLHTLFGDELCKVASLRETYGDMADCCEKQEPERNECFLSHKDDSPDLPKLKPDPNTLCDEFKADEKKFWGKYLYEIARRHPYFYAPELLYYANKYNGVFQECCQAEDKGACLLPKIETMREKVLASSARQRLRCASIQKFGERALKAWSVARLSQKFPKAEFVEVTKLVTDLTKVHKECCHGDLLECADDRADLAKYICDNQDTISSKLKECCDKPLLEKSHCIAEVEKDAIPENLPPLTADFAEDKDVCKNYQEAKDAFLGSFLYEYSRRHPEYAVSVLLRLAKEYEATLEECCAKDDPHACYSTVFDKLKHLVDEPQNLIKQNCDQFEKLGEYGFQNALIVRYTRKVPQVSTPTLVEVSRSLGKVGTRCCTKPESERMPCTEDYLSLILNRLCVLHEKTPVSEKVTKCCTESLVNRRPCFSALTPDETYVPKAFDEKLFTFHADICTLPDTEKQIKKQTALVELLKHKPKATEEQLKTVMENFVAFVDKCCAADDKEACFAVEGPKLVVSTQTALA
The target of data set [7] is T1, recombinant D2H receptor domain (human D2H transporter, amino acid residues 387-685), His-tag fusion protein (human). Put plainly: phage ELISA on coated D2H.
Data set [8] has as its target T2, recombinant hPEPT1 receptor domain (human PEPT1, amino acid residues 391-571), His-tag fusion protein (human) (UniProt P46059).
T2 sequence: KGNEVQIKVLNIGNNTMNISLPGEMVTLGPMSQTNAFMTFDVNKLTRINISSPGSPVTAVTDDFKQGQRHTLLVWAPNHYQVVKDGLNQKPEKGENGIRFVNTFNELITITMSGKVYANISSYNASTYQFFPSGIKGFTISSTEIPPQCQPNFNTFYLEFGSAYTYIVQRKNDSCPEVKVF
Put plainly: phage ELISA, OD on hPEPT1 over OD on BSA.

Data set [9] concerns the target T2, recombinant hPEPT1 receptor domain (human PEPT1, amino acid residues 391-571), His-tag fusion protein (human). The data set can be described thus: phage ELISA on coated hPEPT1.
[10] abbreviates: Table 3, two pans on D2H, third on Caco-2 snapwells.
[11] abbreviates: Table 1, phage panned on hSI, 650 nm.

Chain of BSA (P02769 25-607): as the sequence (P02769 25-607 limits assumed) above

“RYKHDIGCDAGVDKKSSSVRGGCGAHSSPPRAGRGPRGTMVSRL [DCX8]” displayed a BSA in data set [1] (setting [10]) of 0.063 OD. For the same molecule, in data set [2], the “Presence in the intestinal samples fractions” value is recorded as “to a much lesser extent” and the “Transport from the GIT closed loop model into the portal circulation” value is “transported”.
Molecule “RVGQCTDSDVRRPWARSCAHQGCGAGTRNSHGCITRPLRQASAH [SNi10]” displayed a BSA in [1] (setting [11]) of 0.051 OD.
In the case of “H-K(Dansyl)STPPSREAYSRPYSVDSDSDTNAKHSSHNRRLRTRSRPNG-NH2 [ZElan018]”, in [3] (20 μg/ml), the “Binding value at 20 μg/ml” value was −0.33. For the same molecule, the “Binding value at 50 μg/ml” value in data set [3] (50 μg/ml) was found to be 0.95. In addition, the “Binding of dansylated peptide to P100 fraction” value in [4] (repeat assay, compared with scrambled PAX2 control) is “indistinguishable from the scrambled PAX2 control”.
In the case of “SDHALGTNLRSDNAKEPGDYNCCGNGNSTGRKVFNRRRPSAIPT (not fully specified; cysteine pairing not given here) [HAX42]”, the BSA in data set [1] (Table 5, phage panned on HPT-1) is 0.071 OD. Besides, the Peptide/particle binding correlation entry in data set [4] (in words) is listed as “correlated well”. Besides, the “Presence in the portal or systemic circulation” value in data set [2] (HPT1 pool, PAX2 used at 4x concentration) is “found in the portal and systemic circulation”.
For the molecule “SPCGGSWGRFMQGGLFGGRTDGCGAHRNRTSASLEPPSSDY [SNi34]”, the BSA in data set [1] (setting [11]) was determined as 0.115 OD.
Turning to “SQGSKQCMQYRTGRLTVGSEYGCGMNPARHATPAYPARLLPRYR [DCX11]”, the BSA in [1] (setting [10]) is 0.071 OD. Further, in data set [2], the “Presence in the intestinal samples fractions” value was “found” and the “Transport from the GIT closed loop model into the portal circulation” value is reported as “preferably transported”.
RYKHDIGCDAGVDKKSSSVRGGCGAHSSPPRAGRGPRGTMVSRL [phage DCX8]: the D2H/BSA in [5] was determined as 3. The OD in data set [6] turned out to be 0.063 OD 650 nm; in data set [7], 0.163 OD 650 nm.
As to SYCRVKGGGEGGHTDSNLARSGCGKVARTSRLQHINPRATPPSR (peptide, not shown: large carriers) [phage PAX15], the values for the OD in [6] and in data set [9] were 0.079 OD 650 nm and 0.301 OD 650 nm, respectively. Also, the PEPT1/BSA in data set [8] was found to be 4.
On to RYSGLSPRDNGPACSQEATLEGCGAQRLMSTRRKGRNSRPGWTL [phage DCX42], for which the D2H/BSA in data set [5] was determined as 2. The results for the OD in data set [6] and in data set [7] were 0.065 OD 650 nm and 0.158 OD 650 nm, respectively.
As for SQGSKQCMQYRTGRLTVGSEYGCGMNPARHATPAYPARLLPRYR [phage DCX11], in data set [5], the D2H/BSA worked out at 3. The OD in data set [6] was 0.071 OD 650 nm; in data set [7], 0.222 OD 650 nm.
